In PMC10890041 one finds stoichiometry N (antibody per Protein A ligand) data, which are given here for 1 substance.

This experiment addresses B8(RH)4 ligand: eightfold polymerized B domain from the native Protein A, C-terminally fused with th. Briefly: static batch adsorption on an affinity membrane; Protein A ligand coupled by NHS/EDC (protocol I) to ALA-functionalized ALA@Au_PES200 membrane (6 mm); Trastuzumab 0-0.5 mg/mL in PBS pH 7.4, 1 h, 25 °C, 1000 rpm; supernatant UV-vis at 280 nm, ligand load by direct BCA.

On to Trastuzumab (antibody), for which the stoichiometry N (antibody per Protein A ligand) came to 3.
